Assay results as given in US20170101474A1 (FORMUREX, published 2017).
Where no end group is shown, it is not given here.

B1: HER2-PEP21 (peptide)
peptide: PGNDTGLSRAPENSGFTYQ
modifications: not fully specified
notes: Designed pertuzumab mimic peptide; Unlabelled in SPR; FITC-labelled in cell assays
B2: Pep25 (peptide)
peptide: SGEWAYDGYEPNFG
modifications: also: FITC label in cell assays, position not given here
notes: Scrambled negative control; Unlabelled in SPR; FITC-conjugated in the cell assays; also called scrambled peptide; scrambled antibody mimic
B3: Pep11 (peptide)
peptide: WSGENGPGFYDYEA
modifications: not fully specified
notes: Designed cetuximab mimic peptide for EGFR; Unlabelled in SPR; also called EGFR-PEP11; FITC-Pep11
B4: HER2-PEP7 (peptide)
peptide: VGYDTGLRAPNSVGSTKQ
modifications: not fully specified
notes: as for B1
B5: HER2-PEP22 (peptide)
peptide: TSPQGYPNDAGFLGRESTN
modifications: not fully specified
notes: Unlabelled in SPR; FITC-labelled in cell assays; also called control peptide; FITC-HER2-PEP22
B6: Pep22 (peptide)
peptide: WSGENGPGTFYDYEA
notes: also called EGFR-PEP22; No. 22
B7: Pep6 (peptide)
peptide: WSGENGPGYFDYEA
notes: Designed cetuximab mimic peptide for EGFR, made by synthesis; also called No. 6
B8: Pep11-auristatin E PDC (peptide)
peptide: WSGENGPGFYDYEA
modifications: also: auristatin E (as 5-benzoylpentanoic ester) joined through a maleimidocaproyl hydrazone linker to a free thiol of the peptide, thiol position not given here
B9: Pep24 (peptide)
peptide: AEYDFYGPGNEGSW
notes: also called No. 24

Key:
[1] = target: T1, HER2 recombinant human protein (human, UniProt P04626 23-652, limits assumed); assay: SPR, HER2 immobilized, peptide as analyte, 1:1 model
T1 construct: Covalently attached to a carboxymethylated dextran SPR chip by EDC/NHS; also called HER2 protein; human epidermal growth factor receptor 2
Protocol: Then, the chip was blocked by passing EA for 8 minutes at a rate of 10 μL/min. […] Triplicate determinations were done at each concentration. The bound surface was regenerated by sequential injections of 10 mM glycine in PBST (pH 2.5).
The sensorgrams from SPR were globally treated using Scrubber 2® software where all traces were zeroed, cropped, aligned, and referenced. Kinetic constants ka and kd were determined by global fitting analyses of the titration curves using the 1:1 Lagmurian interaction model taking into account the mass transport. The equilibrium dissociation constant (KD) was calculated from the kd/ka ratio.
Both kinetic constants ka and kd were determined by global fitting analyses of the titration curves using the 1:1 Lagmurian interaction model in software Scrubber.

[2] = target: T2, EGFR on A431 and MDA-MB-468 cells (UniProt P00533 25-1210, limits assumed); assay: confocal microscopy of cells incubated with FITC-labelled scrambled peptide for 30 min at 37 C
T2 construct: whole, on cells; also called EGFR overexpressing cell lines; cells which overexpress EGFR
Protocol: For binding/internalization studies, 5×10⁵ cells were seeded in cover slips in 6 well culture plates overnight. […] Cells were fixed with 4% paraformaldehyde and cover slips were mounted on slides which contain a drop of SlowFade®. Cells were then imaged with an inverted Leica. DMIRE2 fluorescence microscope (Leica Biosystems Richmond Inc., Richmond, USA) using a Yokogawa CSUX1 confocal scanner unit. […] Cells were then centrifuged at 500 g for 5 min. Supernatant was removed and cell pellets were re-suspended in FACS solution. The cell suspension was then analyzed on a Beckman Coulter flow cytometer and data were analyzed using the Cell Questpro. A total of 10000 events were collected monitoring FITC.

[3] = target: T3, Recombinant human EGFR (human, UniProt P00533 25-645, limits assumed); assay: SPR, EGFR immobilized on the chip, scrambled peptide Pep25 injected; concentrations not given
T3 construct: Immobilized by amine coupling on a carboxymethyl dextran SPR chip; also called epidermal growth factor receptor; surface-immobilized EGFR

[4] = target: T4, Bovine serum albumin (bovine, UniProt P02769 25-607); assay: SPR, BSA immobilized, peptide as analyte
T4 construct: Immobilized control protein in SPR; also called BSA
T4 sequence (P02769 25-607 limits assumed): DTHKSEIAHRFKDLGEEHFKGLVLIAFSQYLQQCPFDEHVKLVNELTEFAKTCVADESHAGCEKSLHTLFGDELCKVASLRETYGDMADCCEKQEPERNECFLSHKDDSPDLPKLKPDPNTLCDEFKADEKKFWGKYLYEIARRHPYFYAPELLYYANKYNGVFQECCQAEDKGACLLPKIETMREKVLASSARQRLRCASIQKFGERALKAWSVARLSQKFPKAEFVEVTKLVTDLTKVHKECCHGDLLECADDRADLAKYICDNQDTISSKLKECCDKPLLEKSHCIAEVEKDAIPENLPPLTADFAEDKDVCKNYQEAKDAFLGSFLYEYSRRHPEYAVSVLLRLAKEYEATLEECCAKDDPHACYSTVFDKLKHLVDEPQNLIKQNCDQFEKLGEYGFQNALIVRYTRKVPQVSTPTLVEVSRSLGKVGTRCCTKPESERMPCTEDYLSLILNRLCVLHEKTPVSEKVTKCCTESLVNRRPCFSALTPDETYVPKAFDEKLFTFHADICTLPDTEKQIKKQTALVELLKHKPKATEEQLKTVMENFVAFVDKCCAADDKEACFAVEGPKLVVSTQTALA

[5] = target: T3, Recombinant human EGFR; assay: SPR, EGFR immobilized
Protocol: (§1) A carboxymethyl dextran gold sensor chip was activated by N-hydroxysuccinimide (NHS) and N-ethyl-N″-[3-(diethylamino)propyl] carbodiimide (EDC) at 25° C. using phosphate buffered saline pH 7.4 with 0.05% tween 20 as running buffer. […] Unreactive sites were blocked by flowing over the chip 1 M ethanolamine pH 8.5 at 10 μL/min for 8 minutes. […] The resulting sensograms were globally fitted using Scrubber2 software (BioLogic Software, Campbell, Australia) in a 1:1 binding model to determine the association rate (kₒₙ), dissociation rate (kd or koff), and dissociation constant KD.

[6] = target: T3, Recombinant human EGFR; assay: SPR, EGFR immobilized, peptide as analyte, 1:1 model
Protocol: as §1

[7] = target: T2, EGFR on A431 and MDA-MB-468 cells; assay: cell-based or functional assay
[8] = target: HER2 on MDA-MB-361 and ZR-75-1 cells (human) (UniProt P04626); assay: flow cytometry, FITC-labelled peptide 10 µM, ZR-75-1 cells (blank cells 3.2±0.4)
[9] = target: HER2 on MDA-MB-361 and ZR-75-1 cells (human) (UniProt P04626); assay: flow cytometry, FITC-labelled peptide 10 µM, MDA-MB-361 cells (blank cells 4.5±0.2)

Row | Binder | Kd [1] [nM] | binding result [4] | Kd [6] [nM] | koff [6] [s⁻¹] | kon [6] [M⁻¹ s⁻¹] | other results
1 | B1 | 56 |  |  |  |  | 
2 | B2 |  |  |  |  |  | binding result [2]: no binding; binding result [3]: no binding
3 | B3 |  | no binding | 252 | 0.0252 | 100000 | fold KD relative to cetuximab [5]: ~50 fold; IC50 of cytotoxicity (sulforhodamine B assay, 72 h), A431 cells [7]: 388 nM; IC50 of cytotoxicity (sulforhodamine B assay, 72 h), MDA-MB-468 cells [7]: 420 nM
4 | B4 | 93 |  |  |  |  | 
5 | B5 | 138000 |  |  |  |  | MFI [8]: 19.6 MFI; koff [1]: 0.0181 s⁻¹; kon [1]: 131 M⁻¹ s⁻¹; MFI [9]: 22.1 MFI
6 | B6 |  | no binding | 595 | 0.0259 | 43500 | 
7 | B7 |  | no binding | 4800 | 0.00581 | 1210 | 
8 | B8 |  |  |  |  |  | IC50 of cytotoxicity (sulforhodamine B assay, 72 h), A431 cells [7]: 0.0026 nM; IC50 of cytotoxicity (sulforhodamine B assay, 72 h), MDA-MB-468 cells [7]: 0.0013 nM
9 | B9 |  | no binding | 7200 | 0.103 | 14300 | 
